# Source: patent US20110098217A1 (INDIANA UNIVERSITY RESEARCH AND TECHNOLOGY, published 2011)
# Where two headings read alike, the source gives them in different places. Numbered stars: 1 amine (or outer) side, 2 acyl side, 3 side chain; on linkers, the order of the positions; unused ones are H or OH. Bridge positions count the residues as written; N and C are the ends. Square brackets hold non-standard residues; d marks the D form. Primed or numbered codes have the meaning given here. Side chains are listed from the residue outwards. Ends that are not written are not given here. CSA‑2 = Cys(S-CH2CH2COOH), S-(2-carboxyethyl)-L-cysteine, O=C([C@H](CSCCC(=O)[*:3])N[*:1])[*:2]; CSA‑1 = Cys(S-CH2COOH), S-carboxymethyl-L-cysteine, O=C([C@H](CSCC(=O)[*:3])N[*:1])[*:2]; Glu = Glu spacer between Lys side chain and the C16 fatty acid (EC16FA); PEG 20 kDa″ = 20 kDa polyethylene glycol (PEG); PEG 20 kDa = 20 kDa polyethylene glycol; PhLac = O=C(O)[C@@H](O)Cc1ccccc1; Aad = N[C@@H](CCCC(=O)O)C(=O)O; Mpa = O=C(O)CCS
# Tests used:
# [1] = target: T1, human glucagon receptor (human, UniProt P47871 26-477); experiment: cell-based or functional assay
# [2] = target: T2, human GLP-1 receptor (human, UniProt P43220 24-463); experiment: cell-based or functional assay
# [3] = target: T1, human glucagon receptor; experiment: cell-based or functional assay; remark: listed apart in the source
# [4] = target: T1, human glucagon receptor; experiment: cell-based or functional assay; remark: listed apart in the source
# [5] = target: T1, human glucagon receptor; experiment: SPA competition vs 125I-glucagon, receptor membranes
# [6] = target: T1, human glucagon receptor; experiment: as above; remark: listed apart in the source
# [7] = target: T1, human glucagon receptor; experiment: cell-based or functional assay; remark: listed apart in the source
# [8] = target: T2, human GLP-1 receptor; experiment: cell-based or functional assay; remark: listed apart in the source
# [9] = target: T1, human glucagon receptor; experiment: cell-based or functional assay; remark: listed apart in the source
# [10] = target: T2, human GLP-1 receptor; experiment: cell-based or functional assay; remark: listed apart in the source
# T1 sequence (P47871 26-477): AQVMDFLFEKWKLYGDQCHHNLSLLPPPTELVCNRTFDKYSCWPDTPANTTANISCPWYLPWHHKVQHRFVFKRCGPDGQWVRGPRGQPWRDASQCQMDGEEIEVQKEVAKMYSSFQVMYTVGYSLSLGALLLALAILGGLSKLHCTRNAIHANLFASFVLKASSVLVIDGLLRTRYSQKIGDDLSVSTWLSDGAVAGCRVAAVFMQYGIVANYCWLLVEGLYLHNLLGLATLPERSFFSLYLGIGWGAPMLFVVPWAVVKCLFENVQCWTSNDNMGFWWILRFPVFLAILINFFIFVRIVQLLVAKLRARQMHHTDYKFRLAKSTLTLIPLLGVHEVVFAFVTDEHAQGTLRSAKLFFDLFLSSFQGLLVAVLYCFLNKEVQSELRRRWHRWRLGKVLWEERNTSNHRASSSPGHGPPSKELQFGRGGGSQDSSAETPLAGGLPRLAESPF
binder,measurement,setting,value
"[PhLac]TSDYSKYLDERRAKDFVQWLMDTGPGPGPGPGPC(PEG 20 kDa″)-NH2 (lactam 11-15) [[PLA6, E16K20(Lactam),D28,GP-C40(20 kDa)]G(6-40)]",Glucagon antagonism IC50 (inhibit 0.2-0.8 nM glucagon),[1],423 nM
same,GLP-1 agonism EC50,[2],43.6 nM
FTSDYSKYLDSRRAQDFVQWLMNT-NH2 (also called peptide no; 15) [Glucagon(aa6-29)-NH2],cAMP (I/A)50 inhibition index,[3],1730
same,cAMP pA2,[3],6.94
same,cAMP IC50,[4],346 nM
same,cAMP pA2,[4],6.94
same,IC50,[5],1890 nM
same,IC50,[6],1670 nM
FTSKYSKYLDSRRAQDFVQWLMNT-NH2 (also called [K^9]Glucagon(aa6-29)-NH2; peptide no; 16) [[Lys^9]Glucagon(aa6-29)-NH2],cAMP (I/A)50 inhibition index,[3],1990
same,cAMP pA2,[3],6.58
same,cAMP IC50,[4],398 nM
same,cAMP pA2,[4],6.58
same,IC50,[5],5780 nM
same,IC50,[6],3240 nM
"[PhLac]TSDYSKYLDERRAKDFVQWLMDGGPSSGAPPPSC(PEG 20 kDa″)-NH2 (lactam 11-15) [[PLA6, E16K20(Lactam),D28,G29, CEX-C40(20 kDa)]G(6-40)]",Glucagon antagonism IC50 (inhibit 0.2-0.8 nM glucagon),[1],335 nM
same,GLP-1 agonism EC50,[2],180 nM
"[PhLac]TSDYSKYLDERRAQDFVC(PEG 20 kDa)WLMDT-NH2 (lactam 7-11) [[PLA6, K12E16(lactam), C24(20 kDa), D28]G(6-29)]",Glucagon antagonism IC50 (inhibit 0.2-0.8 nM glucagon),[1],628 nM
same,GLP-1 agonism EC50,[2],550 to 753 nM
"LTFTSEYSKYLDSRRAQDFVQWLMNT-NH2 (also called peptide no) [[Leu^4, Glu^9]Glucagon(aa4-29)-NH2]",IC50,[5],36.4 nM
"[PhLac]TSDYSKYLDERRAKDFVQWLMDK([Glu-C16 fatty acid])-NH2 (lactam 11-15) [[PLA6, E16K20(lactam), D28, K29(EC16FA)]G(6-29)]",Glucagon antagonism IC50 (inhibit 0.4 nM glucagon),[7],386 nM
same,GLP-1 agonism EC50,[8],1410 nM
"[PhLac]TSDYSKYLDERRAKDFVK([3‑aminoprop‑1‑ynyl‑benzoic acid-Mpa-PEG 20 kDa])WLMDT-NH2 (lactam 11-15) [[PLA6,E16K20(Lactam), K24(rigid-S-20 kDa)]G(6-29)]",Glucagon antagonism IC50 (inhibit 0.2-0.8 nM glucagon),[1],393 to 620 nM
same,GLP-1 agonism EC50,[2],1360 to 2680 nM
"FTS[CSA‑1]YSKYLDSRRAQDFVQWLMNT-NH2 (N-terminus assumed; SMILES CSCC[C@H](NC(=O)[C@H](CC(C)C)NC(=O)[C@H](Cc1c[nH]c2ccccc12)NC(=O)[C@H](CCC(N)=O)NC(=O)[C@@H](NC(=O)[C@H](Cc1ccccc1)NC(=O)[C@H](CC(=O)O)NC(=O)[C@H](CCC(N)=O)NC(=O)[C@H](C)NC(=O)[C@H](CCCNC(=N)N)NC(=O)[C@H](CCCNC(=N)N)NC(=O)[C@H](CO)NC(=O)[C@H](CC(=O)O)NC(=O)[C@H](CC(C)C)NC(=O)[C@H](Cc1ccc(O)cc1)NC(=O)[C@H](CCCCN)NC(=O)[C@H](CO)NC(=O)[C@H](Cc1ccc(O)cc1)NC(=O)[C@H](CSCC(=O)O)NC(=O)[C@H](CO)NC(=O)[C@@H](NC(=O)[C@@H](N)Cc1ccccc1)[C@@H](C)O)C(C)C)C(=O)N[C@@H](CC(N)=O)C(=O)N[C@H](C(N)=O)[C@@H](C)O, also called [C^9(SCH2COOH)]Glucagon(aa6-29)-NH2; peptide no; 13) [[(CSA-1)^9]Glucagon(aa6-29)-NH2]",cAMP (I/A)50 inhibition index,[3],506
same,cAMP pA2,[3],6.68
same,cAMP IC50,[4],101 nM
same,cAMP pA2,[4],6.68
same,IC50,[5],107 nM
same,IC50,[6],107 nM
"[PhLac](C16 fatty acid)TSDYSKYLDERRAKDFVQWLMDT-NH2 (lactam 11-15) [[C16FA-O-PLA6, E16K20(lactam),D28]G(6-29)]",Glucagon antagonism IC50 (inhibit 0.4 nM glucagon),[7],338 nM
same,GLP-1 agonism EC50,[8],45.7 nM
"[PhLac]TSDYSKYLDERRAKDFVK([Glu-C16 fatty acid])WLMDT-NH2 (lactam 11-15) [[PLA6, E16K20(lactam), K24(EC16FA), D28]G(6-29)]",Glucagon antagonism IC50 (inhibit 0.4 nM glucagon),[7],372 nM
same,GLP-1 agonism EC50,[8],293 nM
"AEGTFTSEYSKYLDEQAAKEFIAWLMDT-NH2 (lactam 15-19; N-terminus assumed; SMILES CC[C@H](C)[C@H](NC(=O)[C@H](Cc1ccccc1)NC(=O)[C@H](CCC(=O)O)NC(=O)[C@@H]1CCCCNC(=O)CC[C@H](NC(=O)[C@H](CC(=O)O)NC(=O)[C@H](CC(C)C)NC(=O)[C@H](Cc2ccc(O)cc2)NC(=O)[C@H](CCCCN)NC(=O)[C@H](CO)NC(=O)[C@H](Cc2ccc(O)cc2)NC(=O)[C@H](CCC(=O)O)NC(=O)[C@H](CO)NC(=O)[C@@H](NC(=O)[C@H](Cc2ccccc2)NC(=O)[C@@H](NC(=O)CNC(=O)[C@H](CCC(=O)O)NC(=O)[C@H](C)N)[C@@H](C)O)[C@@H](C)O)C(=O)N[C@@H](CCC(N)=O)C(=O)N[C@@H](C)C(=O)N[C@@H](C)C(=O)N1)C(=O)N[C@@H](C)C(=O)N[C@@H](Cc1c[nH]c2ccccc12)C(=O)N[C@@H](CC(C)C)C(=O)N[C@@H](CCSC)C(=O)N[C@@H](CC(=O)O)C(=O)N[C@H](C(N)=O)[C@@H](C)O) [[A2E3, E9, E16K20(Lactam), GLP(23-32)]G(2-29)]",Glucagon antagonism IC50 (inhibit 0.2-0.8 nM glucagon),[9],423 nM
same,GLP-1 agonism EC50,[10],9.8 nM
"FTS[CSA‑2]YSKYLDSRRAQDFVQWLMNT-NH2 (N-terminus assumed; SMILES CSCC[C@H](NC(=O)[C@H](CC(C)C)NC(=O)[C@H](Cc1c[nH]c2ccccc12)NC(=O)[C@H](CCC(N)=O)NC(=O)[C@@H](NC(=O)[C@H](Cc1ccccc1)NC(=O)[C@H](CC(=O)O)NC(=O)[C@H](CCC(N)=O)NC(=O)[C@H](C)NC(=O)[C@H](CCCNC(=N)N)NC(=O)[C@H](CCCNC(=N)N)NC(=O)[C@H](CO)NC(=O)[C@H](CC(=O)O)NC(=O)[C@H](CC(C)C)NC(=O)[C@H](Cc1ccc(O)cc1)NC(=O)[C@H](CCCCN)NC(=O)[C@H](CO)NC(=O)[C@H](Cc1ccc(O)cc1)NC(=O)[C@H](CSCCC(=O)O)NC(=O)[C@H](CO)NC(=O)[C@@H](NC(=O)[C@@H](N)Cc1ccccc1)[C@@H](C)O)C(C)C)C(=O)N[C@@H](CC(N)=O)C(=O)N[C@H](C(N)=O)[C@@H](C)O, also called [C^9(SCH2CH2COOH)]Glucagon (aa6-29)-NH2; peptide no; 14) [[(CSA-2)^9]Glucagon(aa6-29)-NH2]",cAMP (I/A)50 inhibition index,[3],580
same,cAMP pA2,[3],6.64
same,cAMP IC50,[4],116 nM
same,cAMP pA2,[4],6.64
same,IC50,[5],146 nM
same,IC50,[6],146 nM
"HAEGTFTSEYSKYLDEQAAKEFIAWLMDT-NH2 (lactam 16-20; N-terminus assumed; SMILES CC[C@H](C)[C@H](NC(=O)[C@H](Cc1ccccc1)NC(=O)[C@H](CCC(=O)O)NC(=O)[C@@H]1CCCCNC(=O)CC[C@H](NC(=O)[C@H](CC(=O)O)NC(=O)[C@H](CC(C)C)NC(=O)[C@H](Cc2ccc(O)cc2)NC(=O)[C@H](CCCCN)NC(=O)[C@H](CO)NC(=O)[C@H](Cc2ccc(O)cc2)NC(=O)[C@H](CCC(=O)O)NC(=O)[C@H](CO)NC(=O)[C@@H](NC(=O)[C@H](Cc2ccccc2)NC(=O)[C@@H](NC(=O)CNC(=O)[C@H](CCC(=O)O)NC(=O)[C@H](C)NC(=O)[C@@H](N)Cc2c[nH]cn2)[C@@H](C)O)[C@@H](C)O)C(=O)N[C@@H](CCC(N)=O)C(=O)N[C@@H](C)C(=O)N[C@@H](C)C(=O)N1)C(=O)N[C@@H](C)C(=O)N[C@@H](Cc1c[nH]c2ccccc12)C(=O)N[C@@H](CC(C)C)C(=O)N[C@@H](CCSC)C(=O)N[C@@H](CC(=O)O)C(=O)N[C@H](C(N)=O)[C@@H](C)O) [[H1A2E3, E9, E16K20(Lactam), GLP(23-32)]G(1-29)]",Glucagon antagonism IC50 (inhibit 0.2-0.8 nM glucagon),[9],2150 nM
same,GLP-1 agonism EC50,[10],0.017 nM
"[PhLac]TSDK([Glu-C16 fatty acid])SKYLDERRAKDFVQWLMDT-NH2 (lactam 11-15) [[PLA6, K10(EC16FA), E16K20(lactam),D28]G(6-29)]",Glucagon antagonism IC50 (inhibit 0.4 nM glucagon),[7],31.1 nM
same,GLP-1 agonism EC50,[8],129 nM
"FTS[Aad]YSKYLDSRRAQDFVQWLMNT-NH2 (N-terminus assumed; SMILES CSCC[C@H](NC(=O)[C@H](CC(C)C)NC(=O)[C@H](Cc1c[nH]c2ccccc12)NC(=O)[C@H](CCC(N)=O)NC(=O)[C@@H](NC(=O)[C@H](Cc1ccccc1)NC(=O)[C@H](CC(=O)O)NC(=O)[C@H](CCC(N)=O)NC(=O)[C@H](C)NC(=O)[C@H](CCCNC(=N)N)NC(=O)[C@H](CCCNC(=N)N)NC(=O)[C@H](CO)NC(=O)[C@H](CC(=O)O)NC(=O)[C@H](CC(C)C)NC(=O)[C@H](Cc1ccc(O)cc1)NC(=O)[C@H](CCCCN)NC(=O)[C@H](CO)NC(=O)[C@H](Cc1ccc(O)cc1)NC(=O)[C@H](CCCC(=O)O)NC(=O)[C@H](CO)NC(=O)[C@@H](NC(=O)[C@@H](N)Cc1ccccc1)[C@@H](C)O)C(C)C)C(=O)N[C@@H](CC(N)=O)C(=O)N[C@H](C(N)=O)[C@@H](C)O, also called [hE^9]Glucagon(aa6-29)-NH2; peptide no; 12) [[hGlu^9]Glucagon(aa6-29)-NH2]",cAMP (I/A)50 inhibition index,[3],2360
same,cAMP pA2,[3],6.27
same,cAMP IC50,[4],472 nM
same,cAMP pA2,[4],6.27
same,IC50,[5],163 nM
same,IC50,[6],163 nM
"[PhLac]TSDYSKYLDERRAKDFVQWLMDTGPSSGAPPPSC(PEG 20 kDa″)-NH2 (lactam 11-15) [[PLA6, E16K20(Lactam), D28,CEX-C40(20 kDa)]G(6-40)]",Glucagon antagonism IC50 (inhibit 0.2-0.8 nM glucagon),[1],350 to 500 nM
same,GLP-1 agonism EC50,[2],75 to 100 nM
"[PhLac]TSDYSKYLDERRAK([Glu-C16 fatty acid])DFVQWLMDT-NH2 [[PLA6, E16, K20(EC16FA), D28]G(6-29)]",Glucagon antagonism IC50 (inhibit 0.4 nM glucagon),[7],576 nM
same,GLP-1 agonism EC50,[8],1290 nM
"[PhLac]TSDYSKYLDERRAKDFVK([Mpa-PEG 20 kDa″])WLMDT-NH2 (lactam 11-15) [[PLA6, E16K20(Lactam), K24(COCH2CH2S-20 kDa)] G(6-29)]",Glucagon antagonism IC50 (inhibit 0.2-0.8 nM glucagon),[1],300 to 400 nM
same,GLP-1 agonism EC50,[2],16 to 20 nM
